Data from article PMC2697983.

System: MBP-GLD-1 (C. elegans)
Assay: EMSA
Conditions: EMSA: 20 mM HEPES pH 7.4, 330 mM KCl, 10 mM MgCl2, 0.1 mM EDTA, 0.1 mg/ml heparin, 0.01% IGEPAL CA630, room temperature, 1 h; SELEX: 50 mM Tris-HCl pH 8.0 …

| Substance | Kd [µM] |
| --- | --- |
| TGE-wt | 0.104 |

System: GST-QKI-5
Assay: EMSA
Conditions: EMSA: 20 mM HEPES pH 7.4, 330 mM KCl, 10 mM MgCl2, 0.1 mM EDTA, 0.1 mg/ml heparin, 0.01% IGEPAL CA630, room temperature, 1 h; SELEX: 50 mM Tris-HCl pH 8.0 …

| Substance | Kd [µM] |
| --- | --- |
| QRE-2:wt | 0.121 |
| TGE-wt | 0.3 |

Target: T1, His-SLM-2 (UniProt Q9R226)
T1 sequence: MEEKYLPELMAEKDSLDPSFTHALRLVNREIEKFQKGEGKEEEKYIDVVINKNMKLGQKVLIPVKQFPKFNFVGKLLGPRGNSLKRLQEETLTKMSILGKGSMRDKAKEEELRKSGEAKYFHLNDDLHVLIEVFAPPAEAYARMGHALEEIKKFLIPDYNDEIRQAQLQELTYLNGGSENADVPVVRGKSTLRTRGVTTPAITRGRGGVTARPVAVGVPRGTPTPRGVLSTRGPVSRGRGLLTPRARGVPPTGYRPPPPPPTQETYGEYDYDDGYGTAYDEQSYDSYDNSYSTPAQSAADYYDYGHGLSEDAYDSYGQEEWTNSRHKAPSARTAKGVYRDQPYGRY
Assay: EMSA
Conditions: EMSA: 20 mM HEPES pH 7.4, 330 mM KCl, 10 mM MgCl2, 0.1 mM EDTA, 0.1 mg/ml heparin, 0.01% IGEPAL CA630, room temperature, 1 h; SELEX: 50 mM Tris-HCl pH 8.0 …

| Substance | Kd [µM] |
| --- | --- |
| AUCGUAAUAAACAAUUAAUUUGGAUUUCUUGAGCUUAUGGCUUUUAAUAUGGG [SRE-7m2] | 0.0145 |
| AUCGUGGUGGGCGGUUAAUUUGGAUUU [SRE-7d1] | > 1 |
| AUCGUGGUGGGCGGUUAAUUUGGAUUUCUUGAGCUUAUGGCUCGACGCAUGGG [SRE-7m3] | > 1 |
| AUCGUGGUGGGCGGUUAAUUUGGAUUUCUUGAGCUUAUGGCUUUUAAUAUGGG [SRE-7wt] | 0.0303 |
| AUCUUGUUCUCCGCUUAAUUUGGAUUUCUUGAGCUUAUGGCUUUUAAUAUGGG [SRE-7m1] | 0.0452 |
| GGAUUUCUUGAGCUUAUGGCUUUUAAU [SRE-7d6] | > 1 |
| GGUUAAUCUGGAUUUCUUGAGCUUAUGGCUUUUCCUAUGG [SRE-7d9m3] | 0.4 |
| GGUUAAUUUGGAUUUCUUGAGCUUAUG [SRE-7d3] | > 1 |
| GGUUAAUUUGGAUUUCUUGAGCUUAUGGCUUUU [SRE-7d8] | > 1 |
| GGUUAAUUUGGAUUUCUUGAGCUUAUGGCUUUUAAUAUGG [SRE-7d9] | 0.0223 |
| GGUUCCCCUGGAUUUCUUGAGCUUAUGGCUUUCCCCAUGG [SRE-7d9m1] | > 1 |
| GGUUCCUUUGGAUUUCUUGAGCUUAUGGCUUUUAAUAUGG [SRE-7d9m2] | 0.4 |
| GGUUCUACCCCAAUUUUCACUAUCCUACCCCCAGUUCC [SRE-4m1] | > 1 |
| GGUUCUACCCCAAUUUUCACUAUCCUAUUAACAGUUCC [SRE-4m2] | > 1 |
| GGUUCUAUAAAAAUUUUCACUAUCCUACCCCCAGUUCC [SRE-4m3] | > 1 |
| GGUUCUAUAAAAAUUUUCACUAUCCUAUUAACAGUUCC [SRE-4wt] | 0.0163 |
| GGUUCUAUACCCCCUUUCACUAUCCUAUUAACAGUUCC [SRE-4m4] | > 1 |
| GUGGGCGGUUAAUUUGGAUUUCUUGAG [SRE-7d2] | > 1 |
| UAAUUUGGAUUUCUUGAGCUUAUGGCU [SRE-7d7] | > 1 |
| UUUCUUGAGCUUAUGGCUUUUAAUAUGG [SRE-7d5] | > 1 |
| UUUGGAUUUCUUGAGCUUAUGGCUUUU [SRE-7d4] | > 1 |
